Test [1] concerns the target T1, rat NPR1-ANP complex (rat).
T1 construct: Rat receptor antigen measured in the presence of ANP; also called rNPR1 + ANP; rNPR1-ANP-complex
Description: ELISA, IgG titrated on the antigen with 250 fold molar excess of ANP.

The target in test [2] is T2, human NPR1 expressed on CHO-K1 cells in the presence of ANP (human, UniProt P01160 124-151).
T2 construct: also called hNPR1 CHO K1 + 100 nM ANP
T2 sequence: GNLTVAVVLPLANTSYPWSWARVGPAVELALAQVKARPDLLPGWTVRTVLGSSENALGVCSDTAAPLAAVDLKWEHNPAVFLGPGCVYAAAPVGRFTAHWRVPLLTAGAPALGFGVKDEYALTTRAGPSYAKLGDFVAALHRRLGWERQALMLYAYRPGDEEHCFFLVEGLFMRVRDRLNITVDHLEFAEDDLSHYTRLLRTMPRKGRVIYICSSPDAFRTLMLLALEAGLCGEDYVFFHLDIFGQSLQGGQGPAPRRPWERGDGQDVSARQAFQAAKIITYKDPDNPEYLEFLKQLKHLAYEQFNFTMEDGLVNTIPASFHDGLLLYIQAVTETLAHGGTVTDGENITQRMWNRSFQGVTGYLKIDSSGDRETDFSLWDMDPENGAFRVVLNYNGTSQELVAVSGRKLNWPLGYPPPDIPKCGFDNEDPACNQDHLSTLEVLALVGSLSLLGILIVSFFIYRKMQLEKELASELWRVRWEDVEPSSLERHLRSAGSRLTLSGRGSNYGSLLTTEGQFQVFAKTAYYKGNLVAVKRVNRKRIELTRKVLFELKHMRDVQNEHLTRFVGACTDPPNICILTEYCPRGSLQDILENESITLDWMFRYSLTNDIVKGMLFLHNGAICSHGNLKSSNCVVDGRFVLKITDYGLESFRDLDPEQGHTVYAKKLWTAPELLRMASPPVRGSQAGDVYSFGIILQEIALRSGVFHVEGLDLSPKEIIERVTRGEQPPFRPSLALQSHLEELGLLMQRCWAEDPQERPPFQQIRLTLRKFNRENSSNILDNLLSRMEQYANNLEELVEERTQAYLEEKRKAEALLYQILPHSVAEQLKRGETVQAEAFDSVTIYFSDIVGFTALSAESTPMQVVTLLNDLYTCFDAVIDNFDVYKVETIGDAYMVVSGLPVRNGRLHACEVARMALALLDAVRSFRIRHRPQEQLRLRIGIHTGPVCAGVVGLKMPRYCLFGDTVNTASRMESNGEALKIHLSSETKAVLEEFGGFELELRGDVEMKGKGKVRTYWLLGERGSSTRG
T2 sequence (peptide): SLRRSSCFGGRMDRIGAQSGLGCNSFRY
Description: flow cytometry, 1 uM IgG, +100 nM ANP.

The target of test [3] is T3, human NPR1-ANP complex (human, UniProt P01160 124-151, limits assumed).
T3 construct: Receptor antigen measured in the presence of ANP; also called hNPR1 + ANP; hNPR1-ANP-complex
T3 sequence: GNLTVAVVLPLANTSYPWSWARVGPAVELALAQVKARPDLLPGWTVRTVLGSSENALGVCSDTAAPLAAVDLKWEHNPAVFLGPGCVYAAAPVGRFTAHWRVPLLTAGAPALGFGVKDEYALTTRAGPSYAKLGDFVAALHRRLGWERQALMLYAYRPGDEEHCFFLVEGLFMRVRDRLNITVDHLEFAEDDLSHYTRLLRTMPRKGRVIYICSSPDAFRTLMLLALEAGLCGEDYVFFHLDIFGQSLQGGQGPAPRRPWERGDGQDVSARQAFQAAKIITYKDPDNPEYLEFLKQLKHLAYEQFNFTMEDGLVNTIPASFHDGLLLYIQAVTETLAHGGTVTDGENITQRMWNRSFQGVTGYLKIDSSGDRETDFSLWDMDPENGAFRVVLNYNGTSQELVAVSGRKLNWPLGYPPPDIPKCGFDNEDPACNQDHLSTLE
T3 sequence (peptide): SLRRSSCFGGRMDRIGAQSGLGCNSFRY
The test can be described thus: ELISA, IgG titrated on the antigen with 250 fold molar excess of ANP [cont.].

Test [4] addresses T3, human NPR1-ANP complex. The test can be described thus: ELISA, 1 uM IgG, +100 nM ANP.
The target in test [5] is T1, rat NPR1-ANP complex. The test can be described thus: ELISA, 1 uM IgG, +100 nM ANP.
Test [6] has as its target T4, human NPR1 expressed on CHO-K1 cells (human, UniProt P16066 33-1061).
T4 sequence: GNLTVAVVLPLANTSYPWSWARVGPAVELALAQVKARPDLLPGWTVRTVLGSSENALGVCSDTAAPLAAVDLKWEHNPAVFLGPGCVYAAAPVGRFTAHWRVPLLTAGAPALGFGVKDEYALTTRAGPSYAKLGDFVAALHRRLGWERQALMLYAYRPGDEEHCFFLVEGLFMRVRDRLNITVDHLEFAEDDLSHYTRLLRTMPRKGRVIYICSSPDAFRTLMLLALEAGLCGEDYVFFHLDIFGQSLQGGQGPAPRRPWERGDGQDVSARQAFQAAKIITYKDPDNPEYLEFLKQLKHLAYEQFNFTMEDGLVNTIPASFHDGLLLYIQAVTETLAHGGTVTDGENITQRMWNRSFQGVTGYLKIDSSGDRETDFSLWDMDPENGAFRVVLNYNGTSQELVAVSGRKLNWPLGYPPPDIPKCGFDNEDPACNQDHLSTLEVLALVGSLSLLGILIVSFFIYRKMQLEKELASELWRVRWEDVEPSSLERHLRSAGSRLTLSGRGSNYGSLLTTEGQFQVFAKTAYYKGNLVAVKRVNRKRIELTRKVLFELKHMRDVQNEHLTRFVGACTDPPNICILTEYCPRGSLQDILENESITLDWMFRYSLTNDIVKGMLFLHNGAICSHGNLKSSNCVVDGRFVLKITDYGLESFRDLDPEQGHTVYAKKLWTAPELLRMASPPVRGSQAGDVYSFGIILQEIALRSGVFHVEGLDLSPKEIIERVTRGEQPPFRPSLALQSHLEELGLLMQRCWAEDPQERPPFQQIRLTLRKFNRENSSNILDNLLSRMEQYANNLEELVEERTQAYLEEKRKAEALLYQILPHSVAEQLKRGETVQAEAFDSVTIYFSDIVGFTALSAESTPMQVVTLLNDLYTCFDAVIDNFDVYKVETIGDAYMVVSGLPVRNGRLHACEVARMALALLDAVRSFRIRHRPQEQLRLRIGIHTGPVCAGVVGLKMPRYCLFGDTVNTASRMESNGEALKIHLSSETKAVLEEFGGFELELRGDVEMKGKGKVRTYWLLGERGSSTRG
Description: cell-based or functional assay.

In test [7] the target is T5, human NPR1 (Natriuretic Peptide Receptor 1), recombinant antigen (human, UniProt P16066 33-473).
T5 construct: also called hNPR1; NPR1-hFc
T5 sequence: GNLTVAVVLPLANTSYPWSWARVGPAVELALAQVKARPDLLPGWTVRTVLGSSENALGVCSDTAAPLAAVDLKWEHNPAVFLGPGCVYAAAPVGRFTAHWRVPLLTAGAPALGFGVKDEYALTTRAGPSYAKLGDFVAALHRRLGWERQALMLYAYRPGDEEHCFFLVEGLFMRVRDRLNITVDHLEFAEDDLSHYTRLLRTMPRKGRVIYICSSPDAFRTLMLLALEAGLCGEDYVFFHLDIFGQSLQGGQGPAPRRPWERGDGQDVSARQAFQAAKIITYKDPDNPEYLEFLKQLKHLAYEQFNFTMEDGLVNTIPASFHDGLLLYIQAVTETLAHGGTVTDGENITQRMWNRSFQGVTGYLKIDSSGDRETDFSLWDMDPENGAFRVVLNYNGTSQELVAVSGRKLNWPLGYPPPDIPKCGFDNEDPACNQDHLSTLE
Description: ELISA, 1 uM IgG.

For test [8], the target named is T4, human NPR1 expressed on CHO-K1 cells. The test can be described thus: cell-based or functional assay. This is another data set of the same source.
Test [9] has the same target. Description: flow cytometry, 1 uM IgG.

T1 sequence (P18910 29-469, one chain of several): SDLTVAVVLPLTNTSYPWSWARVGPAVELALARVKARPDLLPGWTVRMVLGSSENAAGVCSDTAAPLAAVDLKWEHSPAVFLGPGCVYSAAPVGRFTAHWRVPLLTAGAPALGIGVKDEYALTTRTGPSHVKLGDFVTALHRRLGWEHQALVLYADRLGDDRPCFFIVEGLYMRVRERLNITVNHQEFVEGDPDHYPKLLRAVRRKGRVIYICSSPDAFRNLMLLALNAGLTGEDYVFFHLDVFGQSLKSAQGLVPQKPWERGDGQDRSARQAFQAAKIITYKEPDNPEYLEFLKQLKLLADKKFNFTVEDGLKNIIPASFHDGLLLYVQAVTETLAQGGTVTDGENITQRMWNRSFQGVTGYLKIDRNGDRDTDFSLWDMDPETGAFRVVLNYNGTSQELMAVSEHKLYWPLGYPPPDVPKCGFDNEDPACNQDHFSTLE

B1: XX04 IgG (antibody, V domains shown)
VH: QVQLLESGGGLVQPGGSLRLSCAASGFTFSSYWMNWVRQAPGKGLEWVSAISSDGSYTYYADSVKGRFTISRDNSKNTLYLQMNSLRAEDTAVYYCARDRYSMIYSYGAGAFDYWGQGTLVTVSS
VL: DIQMTQSPSSLSASVGDRVTITCRASQGISSYLAWYQQKPGKAPKLLIYTASTLQSGVPSRFSGSGSGTDFTLTISSLQPEDFATYYCQQEWVKPRTFGQGTKVEIKR
notes: also called XX04_LALA
Consider B1, for which, in [1], the half-maximal effective concentration (EC50 (read off the curve)) is about 0.2 nM.

B2: YY04 IgG (YY04_LALA) (antibody, V domains shown)
VH: EVQLVESGGGLVKPGGSLRLSCAASGFTFSNYWISWVRQAPGKGLEWVGRIKSKTYGGTTDYAEPVKGRFTISRDDSKNTLYLQMNSLKTEDTAVYYCAREKYSIRARGHGDYGFDVWGQGTLVTVSS
VL: DIQMTQSPSSLSASVGDRVTITCRASQGISNYLAWYQQKPGKVPKLLIYAASTLQSGVPSRFSGSGSGTDFTLTISSLQPEDVATYYCQQGYHAPFTFGQGTKVEIKR
B2: the “flow cytometry S/BG” value in test [2] stood at 33 S/BG. Also, the “EC50 (read off the curve)” value in [3] is about 0.3 nM. Besides, the entries for the “ELISA IgG binding at 1 uM IgG (unit not given)” value in test [4] and in test [5] were 60 and 54, respectively.

B3: YY01 FabCys (Fab, V domains shown)
VH: EVQLVESGGGLVQPGGSLRLSCAASGFTFSSYWISWVRQAPGKGLEWVANIKQSGSETYYVESVKGRFTISRDNAKNSLYLQMNSLRAEDTAVYYCARSLRRRSTEHAGFDVWGQGTLVTVSS
VL: DIQMTQSPSSLSASVGDRVTITCRASQGISNYLAWYQQKPGKVPKLLIYAASTLQSGVPSRFSGSGSGTDFTLTISSLQPEDVATYYCQQADKFPYTFGQGTKVEIK
For the molecule B3, in test [6], the “cGMP conc [nM] at 1 uM FabCys, +0.075 nM ANP” value came to 46 nM and the “cGMP conc [nM] at 1 uM FabCys, without ANP” value worked out at 15 nM.

B4: YY01 IgG (YY01_LALA) (antibody, V domains shown)
VH: EVQLVESGGGLVQPGGSLRLSCAASGFTFSSYWISWVRQAPGKGLEWVANIKQSGSETYYVESVKGRFTISRDNAKNSLYLQMNSLRAEDTAVYYCARSLRRRSTEHAGFDVWGQGTLVTVSS
VL: DIQMTQSPSSLSASVGDRVTITCRASQGISNYLAWYQQKPGKVPKLLIYAASTLQSGVPSRFSGSGSGTDFTLTISSLQPEDVATYYCQQADKFPYTFGQGTKVEIKR
On to B4, for which the figures for the “ELISA IgG binding at 1 uM IgG (unit not given)” value in [7], in [4] and in test [5] were 54, 76 and 50, respectively. The “flow cytometry S/BG” value in test [2] was 21 S/BG; in [9], 35 S/BG. Further, the “cGMP conc [nM] at 1 uM IgG, +0.075 nM ANP” value in test [8] was 14 nM. Moreover, the “cGMP conc [nM] at 1 uM IgG, without ANP” value in test [8] came to 5 nM.

B5: YY04 FabCys (Fab, V domains shown)
VH: EVQLVESGGGLVKPGGSLRLSCAASGFTFSNYWISWVRQAPGKGLEWVGRIKSKTYGGTTDYAEPVKGRFTISRDDSKNTLYLQMNSLKTEDTAVYYCAREKYSIRARGHGDYGFDVWGQGTLVTVSS
VL: DIQMTQSPSSLSASVGDRVTITCRASQGISNYLAWYQQKPGKVPKLLIYAASTLQSGVPSRFSGSGSGTDFTLTISSLQPEDVATYYCQQGYHAPFTFGQGTKVEIK
On to B5, for which, in test [6], the “cGMP conc [nM] at 1 uM FabCys, +0.075 nM ANP” value worked out at 67 nM and the “cGMP conc [nM] at 1 uM FabCys, without ANP” value is 18 nM.

For the origin of these results see patent publication US20200392225A1 (Novartis, published 2020).
